Data from FireProtDB (doi:10.1093/protein/15.6.455).

B1: Cytochrome c-551, P00099 (parent)
chain: MKPYALLSLLATGTLLAQGAWAEDPEVLFKNKGCVACHAIDTKMVGPAYKDVAAKFAGQAGAEAELAQRIKNGSQGVWGPIPMPPNAVSDDEAQTLAKWVLSQK

Variants of: B1
Settings: Pseudomonas aeruginosa (strain ATCC 15692 / DSM 22644 / CIP 104116 / JCM 14847 / LMG 12228 / 1C / PRS 101 / PAO1), pH 3.6, Thermal, DSC, sodium acetate 50 mM, reversible: yes, structure 451C, whole UniProt chain shown; for ddG of mutation (higher = less stable) / heat capacity change of unfolding / unfolding enthalpy (calorimetric): 62.6 °C

Row | Variant | ddG of mutation (higher = less stable) [kcal/mol] | heat capacity change of unfolding [kcal/mol/K] | unfolding enthalpy (calorimetric) [kcal/mol] | Tm [°C] | change of melting temperature, mutant - wild type (higher = more stable) [°C]
1 | F29A V35M F56Y E65Y V100I | -4.55 | 1.12 | 71.1 | 82.4 | 19.8
2 | F29A V35M V100I | -2.61 | 0.92 | 64.4 | – | –
3 | V100I | -1.11 | 0.73 | 65.6 | – | –
4 | F56Y E65Y V100I | -2.21 | 0.95 | 67 | 73.3 | 10.7
5 | F29A V35M F56Y E65Y | -3.02 | 1 | 64.8 | 77.4 | 14.8
6 | F29A V35M | -1.88 | 0.64 | 64.2 | 72.4 | 9.8
7 | F56Y E65Y | -1.26 | 0.74 | 65.5 | 69 | 6.4
